Assay results: US20020053092

Test system: MeCP2 (Homo sapiens)
Assay: cell_activity
Settings: 5mC at CpG (SssI); S2 cells with Sp1; methylated promoter alone repressed 3-fold; binding inferred from repression

cyclin A1 promoter, SssI methylated
activity (fold repression): 12
